This experiment has as its target T1, murine GPC3-his protein (Sino Biological, Cat. No. 50989-M08B) (murine, UniProt Q8CFZ4 25-558).
T1 construct: Bought protein; also called murine GPC3 protein
The experiment is described as follows: ELISA, coated murine GPC3-His.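 Further: antigen coated on plates at 1 µg/mL, test antibody bound for 2 h at 37 °C, detected with HRP-conjugated secondary antibody and TMB substrate after acid stop.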

Numbering of substitutions follows the chain as printed.

T1 sequence (Q8CFZ4 25-558 limits assumed): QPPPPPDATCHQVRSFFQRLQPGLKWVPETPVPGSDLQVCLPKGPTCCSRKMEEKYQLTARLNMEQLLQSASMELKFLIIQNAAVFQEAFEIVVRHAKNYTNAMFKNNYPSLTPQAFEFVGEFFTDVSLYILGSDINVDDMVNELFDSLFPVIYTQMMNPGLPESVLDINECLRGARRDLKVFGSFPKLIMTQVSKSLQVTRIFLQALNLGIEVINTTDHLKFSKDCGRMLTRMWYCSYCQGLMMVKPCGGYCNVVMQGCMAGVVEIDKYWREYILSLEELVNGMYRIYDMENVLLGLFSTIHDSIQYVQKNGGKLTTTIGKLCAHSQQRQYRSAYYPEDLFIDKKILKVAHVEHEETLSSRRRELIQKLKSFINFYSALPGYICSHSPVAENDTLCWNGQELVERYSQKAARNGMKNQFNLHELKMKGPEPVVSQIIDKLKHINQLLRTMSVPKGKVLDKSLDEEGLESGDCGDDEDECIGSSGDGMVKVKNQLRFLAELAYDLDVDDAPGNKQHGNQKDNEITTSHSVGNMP
Experimental: The specific method is described as follows: The antigen protein was diluted with PBS to a final concentration of 1 μg/mL, and the diluent was added to a 96-well ELISA plate at 50 μL/well. The plate was sealed with a plastic film and incubated at 4° C. overnight, washed twice with PBS the next day, and a blocking solution [PBS+2% (w/w) BSA] was added for blocking at room temperature for 2 h. […] After incubation at 37° C. for 2 h, the plate was washed 3 times with PBS. A horseradish peroxidase (HRP)-labeled secondary antibody (purchased from Merck, Cat. No. AP113P) was added for incubation at 37° C. for 1 h, and the plate was washed 5 times with PBS. A TMB substrate was added at 50 μL/well for incubation at room temperature for 10 min, then a stop solution (1.0M HCl) was added at 50 μL/well. An ELISA plate reader (Multimode Plate Reader, EnSight, purchased from Perkin Elmer) was used to read OD_{450 nm} values, with results as shown in Table 4 to Table 6, FIG. 1A, FIG. 1B, and FIG. 1C.

B1: F1.145.22 human-murine chimeric antibody (antibody, human IgG1, kappa, V domains shown)
VH: QVQLQQSGTDLARPGASVKLSCKASGYTFTSFGISWVKQRTGQGLEWIGEIYPRSGSPYYNEKFTGKATLTADKSSSTAYMELRSLTSEDSAVYFCAKDFGSSYVFDYWGQGTALTVSS
VL: DIQMTQSPASLSASVGETVTITCRASENIYSYLTWYQQKQGKSPQLLVYNAKTLAEGVPSRFSGSGSGTQFSLKINSLQPEDFGTYYCQHHYGTPPTFGTGTKLDLKR
Consider B1, for which the “OD450 at 0.0001 nM antibody” value turned out to be 0.05 OD450 nm, the “OD450 at 0.001 nM antibody” value was 0.06 OD450 nm, the “OD450 at 0.01 nM antibody” value was determined as 0.08 OD450 nm and the “OD450 at 0.1 nM antibody” value amounted to 0.75 OD450 nm. For the same molecule, the “OD450 at 1 nM antibody” value was 0.77 OD450 nm, the “OD450 at 10 nM antibody” value turned out to be 1.62 OD450 nm and the “OD450 at 100 nM antibody” value came out at 1.32 OD450 nm.

B2: F1.3.9 human-murine chimeric antibody (antibody, human IgG1, kappa, V domains shown)
VH: QVQLQQPGTELVKPGASVKLSCKASGYTFTSYWIHWVKQRPGQGLEWIGNINPPNAGTNYNEKFKSKATLTVDKSSSTAYMQLSSLTSEDSAVYYCARGRWLLHDYWGQGTTLTVSS
VL: DIQMTQSPASLSISVGETVTITCRASENIYSNLAWYQQKQGKSPQLLVYGTKNLAEGVPSRFSGSGSGTQYSLKINSLQSEDFGNYYCQHFWGTPYTFGGGTKLEILR
Turning to B2, the “OD450 at 0.0001 nM antibody” value worked out at 0.05 OD450 nm, the “OD450 at 0.001 nM antibody” value came to 0.04 OD450 nm, the “OD450 at 0.01 nM antibody” value came to 0.04 OD450 nm and the “OD450 at 0.1 nM antibody” value was 0.05 OD450 nm. Besides, the “OD450 at 1 nM antibody” value came to 0.18 OD450 nm, the “OD450 at 10 nM antibody” value was determined as 0.18 OD450 nm and the “OD450 at 100 nM antibody” value turned out to be 0.37 OD450 nm.

B3: F1.118.4 human-murine chimeric antibody (antibody, human IgG1, kappa, V domains shown)
VH: QVQLQQSGAELAKPGASVKLSCKASGYSFTSYWIHWVKQRPGQGLEWIGYINPSSGYTKYNQKFKDKATLTADKSSSTAYMQLSSLTYEDSAVYYCARFGSSSFYFDYWGQGTTLTVSS
VL: DIVLTQSPASLAVSLGQRATISCRASQSVSSSSYSYMHWYQQKPGQPPKLLIKYASNLDSGVPARFSGSGSGTDFTLNIHPVEEEDTATYYCQHSWEIPAFGGGTKLEIKR
Take B3: the “OD450 at 0.0001 nM antibody” value was determined as 0.05 OD450 nm, the “OD450 at 0.001 nM antibody” value amounted to 0.05 OD450 nm, the “OD450 at 0.01 nM antibody” value was found to be 0.05 OD450 nm and the “OD450 at 0.1 nM antibody” value amounted to 0.05 OD450 nm. In addition, the “OD450 at 1 nM antibody” value came to 0.05 OD450 nm, the “OD450 at 10 nM antibody” value amounted to 0.06 OD450 nm and the “OD450 at 100 nM antibody” value is 0.07 OD450 nm.

B4: F1.136.7 human-murine chimeric antibody (antibody, human IgG1, kappa, V domains shown)
VH: EVQLQQSGPVMVKPGPSVKISCQTSGFTFTDYYIHWVKQSHGKSLEWIGLVFPYDGGTNYNQKFKDKATLTLDTSSSTAYMELNSLTSEDSAVYYCARAGGFSYALNYWGQGTSVTVSS
VL: DIQMTQSPSSLSASLGGKVTITCKASQDINNYIAWYQHKPGKGPRLLIHFTSTLQPGIPSRFSGSGSGRDYSFSISNLEPEDIATYYCLQYDNLLLTFGAGTKLELKR
As to B4, the “OD450 at 0.0001 nM antibody” value was 0.05 OD450 nm, the “OD450 at 0.001 nM antibody” value came to 0.05 OD450 nm, the “OD450 at 0.01 nM antibody” value is 0.06 OD450 nm and the “OD450 at 0.1 nM antibody” value was determined as 0.22 OD450 nm. For the same molecule, the “OD450 at 1 nM antibody” value came out at 0.17 OD450 nm, the “OD450 at 10 nM antibody” value was 0.91 OD450 nm and the “OD450 at 100 nM antibody” value turned out to be 0.17 OD450 nm.

B5: F1.110.24 human-murine chimeric antibody (antibody, human IgG1, kappa, V domains shown)
VH: EVKLVESGGGLVQPGGSLKLSCAASGFTFSDFYMYWVRQTPEKRLEWVAFISNGGGSTYYPDTVKGRFTISRDNVKNTLYLQMSRLKSEDTAMYYCARPDTSWFAYWGQGSLVTVSA
VL: DIQMTQTTSSLSASLGDRVTISCRASQDIDNYLNWYQQKPDGTVKVLISYTSRLHSGVPSRFSGSGSGTDYSLTISNLEQEDIATYFCQQGNTLPWTFGGGTKLEIKR
Regarding B5, the “OD450 at 0.0001 nM antibody” value is 0.05 OD450 nm, the “OD450 at 0.001 nM antibody” value came out at 0.05 OD450 nm, the “OD450 at 0.01 nM antibody” value is 0.05 OD450 nm and the “OD450 at 0.1 nM antibody” value was determined as 0.12 OD450 nm. For the same molecule, the “OD450 at 1 nM antibody” value came to 0.32 OD450 nm, the “OD450 at 10 nM antibody” value stood at 0.53 OD450 nm and the “OD450 at 100 nM antibody” value came to 0.3 OD450 nm.

B6: F1.9.19 human-murine chimeric antibody (antibody, human IgG1, kappa, V domains shown)
VH: DVQLQESGPGLVKPSQSLSLTCSVTGYSITSGYYWNWIRQFPGNRLEWMAYISYDGINNYNPSLKNRISIARDTSTNQFFLKLNSVTSEDTATYYCATTTEVALFDHWGQGTTLTVSS
VL: DVLLTQTPLSLPVSLGDQASISCRSSQNIVHGNGNTYLEWFLQKPGQSPKLLIYKVSNRFSGVPDRFSGSGSGTDFTLKISRVEAEDLGLYYCFQASHVPWTFGGGTKLEIKR
B6: the “OD450 at 0.0001 nM antibody” value came to 0.05 OD450 nm, the “OD450 at 0.001 nM antibody” value turned out to be 0.04 OD450 nm, the “OD450 at 0.01 nM antibody” value is 0.05 OD450 nm and the “OD450 at 0.1 nM antibody” value worked out at 0.05 OD450 nm. Moreover, the “OD450 at 1 nM antibody” value amounted to 0.05 OD450 nm, the “OD450 at 10 nM antibody” value amounted to 0.05 OD450 nm and the “OD450 at 100 nM antibody” value came to 0.07 OD450 nm.

B7: F1.153.1 human-murine chimeric antibody (antibody, human IgG1, kappa, V domains shown)
VH: QIQLVQSGPELKKPGETVKISCKASGYTFTTAGMQWVQKMPGKGFKWIGWINTHSGEPQYAEDFKGRFAFSLETSASTAYLQISNLKNEDTATYFCARSFYYHGSSFFYFDYWGQGTTLTVSS
VL: DIVMTQSQKFMSTTVGDRVSITCKASQNVGTAVAWYQQKPGQSPKLLIYSASNRYTGVPDRFTGSGSGADFTLTISNMQSEDLADYFCQQYSRYPLTFGAGTKLELKR
On to B7, for which the “OD450 at 0.0001 nM antibody” value stood at 0.04 OD450 nm, the “OD450 at 0.001 nM antibody” value turned out to be 0.08 OD450 nm, the “OD450 at 0.01 nM antibody” value turned out to be 0.04 OD450 nm and the “OD450 at 0.1 nM antibody” value was determined as 0.04 OD450 nm. Besides, the “OD450 at 1 nM antibody” value came out at 0.05 OD450 nm, the “OD450 at 10 nM antibody” value was 0.08 OD450 nm and the “OD450 at 100 nM antibody” value was 0.09 OD450 nm.

B8: F1.111.11 human-murine chimeric antibody (antibody, human IgG1, kappa, V domains shown)
VH: EVQLQQSGPELVKPGASVKISCKASGYTFTDYYMNWVKQSHGKSLEWIGDIYPNNGDTTYNQRFKGKATLTVDKSSSTAYMELRSLASEDSAVYYCACPYNNPFGYWGQGTLVTVSA
VL: DVVMTQTPLSLPVSLGDQASISCRSSQSLVHSNGNTYLHWYLQKPGQSPKLLIYKVSNRFSGVPDRFSGSGSGTDFTLKISRVEAEDLGVYFCSQSTHVPWTFGGGTKLEIKR
For the molecule B8, the “OD450 at 0.0001 nM antibody” value came to 0.06 OD450 nm, the “OD450 at 0.001 nM antibody” value amounted to 0.13 OD450 nm, the “OD450 at 0.01 nM antibody” value was 0.62 OD450 nm and the “OD450 at 0.1 nM antibody” value came to 2.04 OD450 nm. In addition, the “OD450 at 1 nM antibody” value worked out at 2.67 OD450 nm, the “OD450 at 10 nM antibody” value worked out at 2.6 OD450 nm and the “OD450 at 100 nM antibody” value is 3.01 OD450 nm.

B9: F1.62.9 human-murine chimeric antibody (antibody, human IgG1, kappa, V domains shown)
VH: QVQLQQSDAELVKPGASVKISCKVSGYIFTDHTIHWMKQRPEQGLEWIGYIYPRDGSIKYNENFKGKATLTADKSSSATYMQLNSLTSEDSAVYFCARPIYYDYAYYFDYWGQGTTLTVSS
VL: B8 VL with T7S, S26R, L51V, W101Y
Consider B9, for which the “OD450 at 0.0001 nM antibody” value stood at 0.04 OD450 nm, the “OD450 at 0.001 nM antibody” value was 0.04 OD450 nm, the “OD450 at 0.01 nM antibody” value was found to be 0.05 OD450 nm and the “OD450 at 0.1 nM antibody” value was 0.04 OD450 nm. Moreover, the “OD450 at 1 nM antibody” value stood at 0.04 OD450 nm, the “OD450 at 10 nM antibody” value turned out to be 0.06 OD450 nm and the “OD450 at 100 nM antibody” value stood at 0.28 OD450 nm.
